Reference: article PMC4109720

Assays:
myc-JIP1-F336A (human) = myc-JIP1-F336A (human) (UniProt Q9UQF2); test: co-IP
myc-JIP1-ΔLIR (human) = myc-JIP1-ΔLIR (human) (UniProt Q9UQF2); test: co-IP

percent of the GFP-LC3 binding of wildtype myc-JIP1 (densitometry of co-IP) (myc-JIP1-F336A (human)): 20%
percent of the GFP-LC3 binding of wildtype myc-JIP1 (densitometry of co-IP) (myc-JIP1-ΔLIR (human)): 20%
Substance: GFP-LC3 (from UniProt Q9GZQ8 1-120) (natural protein)
